Reference: PMC6001692, “Chlamydial virulence factor TarP mimics talin to disrupt the talin‐vinculin complex” (Febs Letters, 2018)
Where no end group is shown, it is not given here.

Legend:
[1] = biological target: T1, FAK‐FAT domain (residues 941–1090) (Mus musculus, UniProt P34152); assay: Fluorescence polarisation assay, fluorescein-labelled LD-motif peptides titrated with FAK-FAT domain; type: binding
T1 construct: the FAK‐FAT domain (residues 941–1090); 6xHis (cleaved yes); made in house; host or cells: E. coli BL21 (DE3)
T1 sequence (P34152 904-1052 limits assumed): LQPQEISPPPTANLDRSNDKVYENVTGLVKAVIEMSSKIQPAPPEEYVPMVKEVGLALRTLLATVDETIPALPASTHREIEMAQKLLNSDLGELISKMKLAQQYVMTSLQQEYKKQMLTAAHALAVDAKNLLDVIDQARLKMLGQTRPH
Excerpt: Chicken vinculin Vd1 (residues 1–259), murine talin R10 (residues 1815–1973), and the FAK‐FAT domain (residues 941–1090) were cloned into a pET151 vector (Invitrogen) and expressed in E .coli BL21 (DE3) cells cultured in LB. Standard nickel‐affinity chromatography was used to purify the His‐tagged recombinant proteins as described previously 15. The proteins were further purified using anion‐exchange chromatography following cleavage of the 6xHis‐tag with TEV protease. Protein concentrations were determined using the respective extinction coefficients at 280 nm.
Peptides with either a C‐ or N‐terminal cysteine were synthesised by GLBiochem (China).
Peptides were coupled to a thiol‐reactive fluorescein dye via the terminal cysteine. Stock solutions were made in phosphate‐buffered saline (PBS; 137 mM NaCl, […], […], […], pH 7.4), 1 mM TCEP and 0.05% Triton X‐100. Excess dye was removed using a PD‐10 desalting column (GE Healthcare, Chicago, IL, USA). […] Fluorescent polarisation (FP) measurements were recorded on a BMGLabTech CLARIOstar plate reader at room temperature and analysed using GraphPad Prism. K d values were calculated with nonlinear curve fitting using a one‐site total binding model. […]

[2] = biological target: T2, vinculin Vd1 (residues 1–259) (Gallus gallus, UniProt P12003); assay: Fluorescence polarisation assay, fluorescein-labelled peptides titrated with vinculin head Vd1; type: binding, Chicken; conditions: FP; negative control; Kd ND in Fig. 1D
T2 construct: Chicken vinculin Vd1 (residues 1–259); 6xHis (cleaved yes); made in house; host or cells: E. coli BL21 (DE3)
Experimental: Peptides were coupled to a thiol‐reactive fluorescein dye via the terminal cysteine. Stock solutions were made in phosphate‐buffered saline (PBS; 137 mM NaCl, 27 mM KCl, 100 mM Na2HPO4, 18 mM KH2PO4, pH 7.4), 1 mM TCEP and 0.05% Triton X‐100. Excess dye was removed using a PD‐10 desalting column (GE Healthcare, Chicago, IL, USA). Titrations were performed in PBS using a constant 1 μM concentration of fluorescein‐coupled peptide with increasing concentration of protein; final volume 100 μL in a black 96‐well plate. Fluorescent polarisation (FP) measurements were recorded on a BMGLabTech CLARIOstar plate reader at room temperature and analysed using GraphPad Prism. K d values were calculated with nonlinear curve fitting using a one‐site total binding model.
In this assay, synthetic VBS peptides (Materials and methods) were fluorescently labelled with fluorescein and titrated against an increasing concentration of Vd1.

[3] = biological target: T3, Chicken vinculin Vd1 (residues 1–259) (chicken, UniProt P12003 1-259); assay: fluorescence polarisation; 1 μM fluorescein-coupled peptide constant, increasing concentration of protein; PBS, room temperature, 96-well plate; one-site total binding fit; triplicate; conditions: both partners purified
T3 construct: also called vinculin head; vinculin head domain
T3 sequence (looked up): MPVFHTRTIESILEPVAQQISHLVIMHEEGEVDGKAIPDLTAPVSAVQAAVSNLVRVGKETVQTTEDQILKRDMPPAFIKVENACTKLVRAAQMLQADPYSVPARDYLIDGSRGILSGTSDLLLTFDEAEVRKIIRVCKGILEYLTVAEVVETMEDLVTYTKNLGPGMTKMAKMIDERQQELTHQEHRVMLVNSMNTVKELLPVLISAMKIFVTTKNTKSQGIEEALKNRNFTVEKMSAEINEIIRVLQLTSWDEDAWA

[4] = biological target: T3, Chicken vinculin Vd1 (residues 1–259); assay: SEC-MALS; analytical gel filtration, Superdex-75, 4 °C, 50 mM Tris pH 7.5, 150 mM NaCl, 2 mM DTT; 100 μM of each protein at 1:1 (talin:Vd1), incubated at 37 °C for 30 min; conditions: both partners purified
[5] = biological target: FAK‐FAT domain (residues 941–1090); assay: fluorescence polarisation; 1 μM fluorescein-coupled peptide constant, increasing concentration of protein; PBS, room temperature, 96-well plate; one-site total binding fit; triplicate

Q: `CC(C)C[C@H](NC(=O)[C@H](CCC(=O)O)NC(=O)[C@H](CC(C)C)NC(=O)[C@H](CC(C)C)NC(=O)[C@H](CC(C)C)NC(=O)[C@H](CCCNC(=N)N)NC(=O)[C@H](CC(=O)O)NC(=O)[C@H](CC(C)C)NC(=O)[C@H](CCC(=O)O)NC(=O)[C@H](CO)NC(=O)[C@H](CC(C)C)NC(=O)[C@H](CC(N)=O)NC(=O)[C@@H](N)CS)C(=O)N[C@@H](CC(N)=O)C(=O)O` [Paxillin LD2, reference compound] was tested. Which Kd ([1]; FP, 1 μM fluorescein-coupled peptide, increasing FAK-FAT, PBS, room temperature, ± SE, read-out: Dissociation constant Kd for binding to FAK-FAT) did it give?
A: 9.01 µM

Q: Which “Interaction with Vd1 (in words)” value [2] does the source give for “EGAEGLEHLLPQLRSHLDDAFDQQGN‐C [TarP LD, synthetic LD-motif peptide of C. caviae TarP, residues 655–680, with C-terminal cysteine]” here?
A: does not interact with Vd1

Q: What about the “Binding to FAK-FAT by FP (in words)” value ([1]; fluorescein-labelled peptide, Kd ND in Fig. 4B) of the same molecule?
A: no increase in polarisation

B1: mTal1_VBS36 peptide (talin residues 1622–1656) with N-terminal cysteine, fluorescein-coupled (peptide)
peptide: C(fluorescein)VNPRDPPRWSVLAGHSRTVSDSIKKLITSMRDKAP
notes: also called talin VBS36; source: synthetic peptide (GLBiochem)
Q: For B1, which Kd [3] is on record?
A: 1.03 µM

B2: murine talin R10 (residues 1815–1973) (domain or fragment, UniProt P26039 1815-1973, looked up)
chain: NEAASAAGVVGGMVDSITQAINQLDEGPMGDPEGSFVDYQTTMVRTAKAIAVTVQEMVTKSNTSPEELGPLANQLTSDYGRLASQAKPAAVAAENEEIGAHIKHRVQELGHGCSALVTKAGALQCSPSDVYTKKELIECARRVSEKVSHVLAALQAGNR
notes: also called talin rod domain R10
Q: Which “stoichiometry N” value [4] does the source give for B2 here?
A: 1

Q: Which Kd [3] does the source give for LLEAARNTTTMLSKTLSKVC(fluorescein) (source: synthetic peptide (GLBiochem)) [TarP_VBS1 peptide (C. caviae residues 850–868) with C-terminal cysteine, fluorescein-coupled] here?
A: 1.29 µM

Q: CNLSELDRLLLELN (fluorescein (thiol-reactive dye) coupled via the N-terminal cysteine) [Pax_LD2 peptide (paxillin residues 141–153) with N-terminal cysteine, fluorescein-coupled] was tested. Which Kd [5] did it give?
A: 9 µM
